Assay results published in patent publication US20220204569.

What was measured:
[1] = system: TAL-HT x2 GFP fusion (Xanthomonas (engineered)); conditions: FRAP T1/2 2.91 ± 0.22 s (n = 5), live HeLa; nuclear CV 0.40, uniform localization as control
[2] = system: TAL-HT x3 GFP fusion (Xanthomonas (engineered)); conditions: FRAP T1/2 6.30 ± 1.86 s (n = 5), live HeLa; nuclear CV 1.2
[3] = system: TAL-HT x8 GFP fusion (Xanthomonas (engineered)); conditions: FRAP T1/2 30.97 ± 6.79 s (n = 5), live HeLa; nuclear CV 0.87
[4] = system: ChrocodiLE (TAL-HT x15 GFP fusion) (Xanthomonas (engineered)); conditions: FRAP T1/2 68.53 ± 8.45 s (n = 4), live HeLa; nuclear CV 1.1
[5] = system: TAL-HT x12 GFP fusion (Xanthomonas (engineered)); conditions: FRAP T1/2 67.84 ± 8.43 s (n = 4), live HeLa; nuclear CV 1.1
[6] = system: TAL-HT x1 GFP fusion (Xanthomonas (engineered)); conditions: FRAP T1/2 2.09 ± 0.40 s (n = 5), live HeLa; nuclear CV 0.45, uniform localization as control
[7] = system: GFP fusion, 0 TAL-repeats (control) (Xanthomonas (engineered)); conditions: FRAP T1/2 1.87 ± 0.28 s (n = 3), live HeLa; nuclear CV 0.53

HeLa nuclear genomic DNA (chromatin)
FRAP recovery half-time [1]: 2.91 s | FRAP recovery half-time [2]: 6.3 s | FRAP recovery half-time [3]: 31 s | FRAP recovery half-time [4]: 68.5 s | FRAP recovery half-time [5]: 67.8 s | FRAP recovery half-time [6]: 2.09 s | FRAP recovery half-time [7]: 1.87 s
